Data: the nanobody polyreactivity screen of Harvey et al. (2022)

Test: yeast display, Sf9 membrane polyspecificity reagent, FACS + sequencing; frameworks hold sequencing errors
In short: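 Genes from sorted yeast were amplified by colony PCR, read by MiSeq 2 × 250 sequencing and filtered on CDR length. These cells carried a synthetic nanobody library in Saccharomyces cerevisiae BJ5465 and were sorted by FACS into low and high (top ~1%) gates on anti-HA and streptavidin fluorescence. Polyreactivity is labelled according to the gate of origin.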

QVQLVESGGGLVQAGGSLRLSCAASGFTFRYYAMGWYRQEPGKERELVAAISRSDSRTYADSVKGRFTISRDNAMNTVYIQMNSLNPEDTAVYYCNARYGYSSYVFIFDYWGQGTQVTVSS
polyreactivity (PSR sort gate): high polyreactivity

QVQLVESWGGLVQAGGSLRLSCAASGRTFYYYTMGWYRQAPGKEREFVAAISWSGGGTYYADSVKGRFTISRDNAKNTDYLQMNILKPEDTAVYYCATGPRIRYDYWGQGTQVNVSS
polyreactivity (PSR sort gate): high polyreactivity

QDQLVDSGGGLVQAGGSLRLSCAASGSIFYLYAMGWYRQAPGKEREFVAAITWRGGSTYYADSVKGRFTISRDNAKNTVYLQLNSLKPEDTAVYYCGAKLPRVYGYGFEYWGQGTQVTVSS
polyreactivity (PSR sort gate): low polyreactivity

QVQLVESGGGLVQAGGSLRLSCAASGRTFVAKTMGWYRQAPGKERELVAAISSSGGSTYYADSVKGRFTISRDNAKNTVYLQMNSLKPEDTAVYYCAKTHSGWWRYGYWGQGTQVTVSS
polyreactivity (PSR sort gate): high polyreactivity

QVQLVESGGGLVQAGGSLRLSCAASGSTFYGYAMGWYRQAPGKERELVAAISSGASTYYADSVKGRFTISRDNAKNSVYLQMNSLKPEDTAVYYCAAYSYPKKYGYWGQGTQVTVSL
polyreactivity (PSR sort gate): high polyreactivity

QVQLVESGGGLVQAGGSLRLSCAASGFTISQYAMGWYRQAPGKERELVAAISASGGRTYYADSVKGRFTISRDNAKNTVYLQMNSLKPDDTAVYYCAAKLYVSGGRYWYDYWGQGTQVTVSS
polyreactivity (PSR sort gate): high polyreactivity

QVQLVESGGGLVQAGGSLRLSCAASGITIDYYAMGWYRQAPGKERELVAAISSVGNTNYADSVKGRFTISRDNAKNTVYLQMNSLKPEDTAVYYCAARAYGQRLYRVWSGYGYWGQGTQVTVSS
polyreactivity (PSR sort gate): high polyreactivity

QVQLVESGGGLVQAGGSLRLSCAASGRIFQPNAMGWYRQAPGKEREFVAAISSSGGYTFYADSVKGRFTISRDNAKNTVYLQMNSLKPEDTAVYYCAKRYGYTEYFYWGQGSQVTVSS
polyreactivity (PSR sort gate): high polyreactivity

QVQLVESVGGLVQAGGSLRLSCAASGGTFKTNAMGWYIQAPGKERELVAAITGSGTSTYYADSVKGRFTISRDNAKNTVYLQMNSLKPEDTAVYYCAADKLYQPGIGDDYWGQGNQVTVSS
polyreactivity (PSR sort gate): low polyreactivity

QVQLVESGGRLVQAGGSLRLSCAASGYIFYPNVMGWYRQAPGKERELVAAISSSGGSTYYADSVKGRFTISRDNAKNTVYLQMNSLKPEDTAVYYCAARSLRYADYRSSYQKDMYYWGQGTQVTVSS
polyreactivity (PSR sort gate): low polyreactivity

QVQLVESGGGLVQAGGSLRLTCAASGSIIYTNGMGWYRQAPAKERELVAAISVSGGSTYYADSVKGRFTITRDNEKNTVYLQMNSLKPEDTAVYFCNAKDWYFYRYDYWGQGTQVTVSS
polyreactivity (PSR sort gate): low polyreactivity

QVQLVESGGGLVQAGGSLRLSCAASGNTFWRYAMGWYRQAPGKERELVAAITYTSGSTYYADSVKGRFTISRDNAKNTVYLQMNSLKPEDTAVYYCAAESVYGSGYVFRYYYWGQGTQVSVSS
polyreactivity (PSR sort gate): high polyreactivity

QVQLVESRGGLVQAGGSLRLSCAASGRIFRYYAMGWYRQAPGKERELVAAITWRGGNTRYADSVKGRFTISRDNAKNTVYLPMNSLKTEDTAVYYCAARGQSAYSIWSYYYWGQGTQVTVSS
polyreactivity (PSR sort gate): high polyreactivity

QVQLVESGGGLVQAGGSLRLTCDASGITFRLYAMGWSRQAPGKETELVARITDRGSTYYADSVKGRFTISRDNAKNTVYLQMNSLKPEDTAVYYCAARGYRGLVQLRYGYWGQGTQVTVSS
polyreactivity (PSR sort gate): high polyreactivity

QVQLVESGGGLVQAGGSLRLSCAASGRIFKWYAMGWYRQAPGKVRELVAAISARGGRTYYADSVKGRFTISRDNAKNTVYLQMNSLKPEDTAVYYCATDYVKSDAYKYYYWGQGTQVTVSS
polyreactivity (PSR sort gate): high polyreactivity

QVQLVESGGGLVQAGGSLRLSCAASGRIFYRYAMGWYRQAPGKERELVAAITGSGGSTYYADSVKGRFTISRDNAKNTVYLQMNSLKPEDTAVYYCNAVYARYGSQGYEYWGQGTQVTVSS
polyreactivity (PSR sort gate): high polyreactivity

QVQLVESGGGLVQAGGSLRLSCAASGRIFSKNAMGWYRQAPGKEMEFVATISYGDGSTYYADSVKGRFTISRDNAKNTVYLQMNSLKPEDTAVYYCAATIGHNGFDYWGQGTQVTVSS
polyreactivity (PSR sort gate): low polyreactivity

QVQLVESGGGLVQAGGSLRLSCAASGSIYYGYAMGWYRQAPGKERELVAAISSSGGSTYYADSVKGRFTISRDNAKNTVYLQMNSLKPEDTAVYYCAATRRKAYLYPSDYWGQGTQVTVSS
polyreactivity (PSR sort gate): high polyreactivity

QVQLVESGGGLVQAGGSLRLSCAASGIIFYSYAMGWYRQAPGKERELVAAISRSSGRTYYADSVKGRFTISRDNAKNTVYLQMNSLKPEDTAVYYCATDYYYYPWEYDYWGQGTQVTVSS
polyreactivity (PSR sort gate): high polyreactivity

QVQLVESGGGLVQAGGSLRLSCAASGRIFGVNAMGWYTQAPGKERELVAAIRYTGGSTYYADSVKGRFTISRDNAKNTVYLQMNSLKPEDTAVYYCAKARYTYSWSFGYWGQGTQVTVSS
polyreactivity (PSR sort gate): low polyreactivity

QVQLVESGGGLVQAGGSLRISCAASGLTFVYYTMGWYSQAPGKEREFVAGIDWSGGSTYYADSVKLRFTISRDNAKNTVYLQMNSLKPEDTAVYYCAAAVYYQYGVYRHDYWGQGTQVTVSS
polyreactivity (PSR sort gate): low polyreactivity

QVQLVESGGGLVQAGGSLRLSCAASGLIIPFYAMGWYRQAPGKERELVAAISWSAGSTYYADSVKGRFTISRDNAKNTVYLQMNCLKPEDTAVYYCAATAYYYYDYDYWGQGTQVTVSS
polyreactivity (PSR sort gate): low polyreactivity

QVQLVESGGGLVQAGGSLRLSCAASGSIFTPYAMGWYRQAPGKERELVAAISRSGGSTYYADSVKGRFTISRDNAKITVYLQMNSLKPEDTAVYYCAVVASLSHTETPEYDYWGQGTQGTVSS
polyreactivity (PSR sort gate): low polyreactivity

QVQLVESGGGLVQAGGSLRLSCAASGIIFHFNAMGWYRQAPGKERELVAAITSGANTNYADSVKGRFTISRDNAKNTVYLQMNSLKPEDTSVYYCATRPHTDVRFVRTRRYDYWGQGTQVTVSS
polyreactivity (PSR sort gate): low polyreactivity

QVHLVDSGGGLVQAGGSLRLSSAASGRIFPFYAMGWYRKAPGKERELVAAITSSGGRTYYADSVKGRFTISRDNAKNTVYLQMNSLKPEDTAVYYCAASLVGPFIYSHLYDYWGQGTQVTVSS
polyreactivity (PSR sort gate): low polyreactivity

QVQLVESGGGLVQAGGSLRLSCAASGLIFVQNAMGWYRPAPGKERELVAAISSRGTNTYYADSVKGRFTISRDTAKNTVYLQMNSLKPEDTAVYYCAKPLKTPRPNYDYWGQGTQVTVSS
polyreactivity (PSR sort gate): low polyreactivity

QVQLVESGGGLLQAGGSLRVSCAASGSIFHENAMGWYRQAPGKERELVAAIDQTGSTYADSVKGRFTISRDNAKNTVYLQMNSLKPEDTAVYYCAKGDVSLDYPSLEFDYWGQGSQVTVSS
polyreactivity (PSR sort gate): low polyreactivity

QVQLLESGGGLVQAGGSLRLSCAASGNIFMDYAMGWYRHAPGKERELVAAITSRVDDTYYADSVKGRFTISRDNAKNTVYLQMNSLKPEDTAVYYCAADYSVTLRIGGYYWFYAFDYWGQGTQVTVSS
polyreactivity (PSR sort gate): low polyreactivity

QVQLVDSGGGLVQAGGSLRLSFAASGNIIYQNAMGWDRQAPGKERELVAAISSGGSTNYADSVKGRFTISRDNAKITVYLQMNSLKPEDTAVYYCAAEHWTESVWDDSWGQGTQVTVSS
polyreactivity (PSR sort gate): low polyreactivity

QVQLVESGGGLVQAGGSLRLSCAASGSIFRLNAMGWYRQAPGKERELVAAISVSGTRTYYADSVKGRFTISRDNAKNIVYLQMNSLKPEDTAVYYCAARVYKGQGKGDYWGQGTQVTVSS
polyreactivity (PSR sort gate): high polyreactivity

QVQLVESGGGLVHAGGSLRLSCDASGFTFAGYSMGWYRQAPGKERELVAGIRSSGARTYYADSVKGRFTISRDNAKTTVYLQKNILKPEHTAVYYCAKTDGFYSGYGYWGQGTQVTVSS
polyreactivity (PSR sort gate): low polyreactivity
